In the oligonucleotide strings, read from the 5' end, every base follows the letter of its sugar. An asterisk marks phosphorothioate; unmarked linkages are phosphodiester. Other units and linkages are bracketed, terminal groups are in braces. A string of capitals states the bases alone. m = 2'-O-methyl; r = 2'-OH (RNA)
B1: GA226: PCSK9 gRNA; protospacer GGCTTTTCCGAATAAACTCC (SEQ ID NO: 220) (nucleic acid)
guide: GGCUUUUCCGAAUAAACUCCGUUUUAGAGCUAGAAAUAGCAAGUUAAAAUAAGGCUAGUCCGUUAUCAACUUGAAAAAGUGGCACCGAGUCGGUGCUUUU
modifications: sugars from the 5' end m3 r94 m3, linkages s3 o93 s3 (s phosphorothioate, o phosphodiester), T or U not given here
B2: GA007: structure-guided 2′-OMe heavy guide RNA (gRNA) design, PCSK9 (nucleic acid)
guide: mG*mG*mU*rGrCrUrArGrCrCrUrUrGrCrGrUrUrCrCrGmGrUrUrUrUrArGmAmGmCmUmAmGmAmAmAmUmAmGmCmAmArGrUrUmArAmArAmUrAmAmGmGmCmUmArGrUmCmCrGrUrUrAmUmCrArAmCmUmUmGmAmAmAmAmAmGmUmGrGmCmAmCmCmGmAmGmUmCmGmGmUmGmCmU*mU*mU*mU
B3: GA008: structure-guided 2′-OMe heavy guide RNA (gRNA) design, PCSK9 (nucleic acid)
guide: mG*mG*mU*rGrCrUrArGrCrCrUrUrGrCrGrUrUrCrCrGmGrUrUrUrUrArGmAmGmCmUmAmGmAmAmAmUmAmGmCmAmArGrUrU*mArAmArAmUrAmAmGmGmCmUmArGrUmCmCrGrUrU*rAmUmCrArAmCmUmUmGmAmAmAmAmAmGmUmGrGmCmAmCmCmGmAmGmUmCmGmGmUmGmCmU*mU*mU*mU
B4: GA401 (nucleic acid)
guide: mU*mC*mA*rGrCrUrCrCrArGrGrCrGrGrUrCrCrUrGrGmGrUrUrUrUrArGmAmGmCmUmAmGmAmAmAmUmAmGmCmAmArGrUrUmArAmArAmUrAmAmGmGmCmUmArGrUmCmCrGrUrUrAmUmCrArAmCmUmUmGmAmAmAmAmAmGmUmGrGmCmAmCmCmGmAmGmUmCmGmGmUmGmCmU*mU*mU*mUmUmUmU
B5: GA402 (nucleic acid)
guide: mU*mC*mA*rGrCrUrCrCrArGrGrCrGrGrUrCrCrUrGrGmGrUrUrUrUrArGmAmGmCmUmArGmAmAmAmUmAmGmCmAmArGrUrUmArAmArAmUrAmAmGmGmCmUmArGrUmCmCrGrUrUrAmUmCrArAmCmUmUrGmAmAmAmAmAmGmUmGrGmCmAmCmCmGmAmGmUmCmGmGmUmGmCmU*mU*mU*mUmUrUmU
B6: GA403 (nucleic acid)
guide: mU*mC*mA*rGrCrUrCrCrArGrGrCrGrGrUrCrCrUrGrGmGrUrUrUrUrArGmAmGmCmUmArGmAmAmAmUmAmGmCmAmArGrUrU*mArAmArAmUrAmAmGmGmCmUmArGrUmCmCrGrUrUrAmUmCrArAmCmUmUrGmAmAmAmAmAmGmUmGrGmCmAmCmCmGmAmGmUmCmGmGmUmGmCmU*mU*mU*mUmUrUmU
B7: GA404 (nucleic acid)
guide: mU*mC*mA*rGrCrUrCrCrArGrGrCrGrGrUrCrCrUrGrGmGrUrUrUrUrArGmAmGmCmUmArGmAmAmAmUmAmGmCmAmArGrUrUmArAmArAmUrAmAmGmGmCmUmArGrUmCmCrGrUrU*rAmUmCrArAmCmUmUrGmAmAmAmAmAmGmUmGrGmCmAmCmCmGmAmGmUmCmGmGmUmGmCmU*mU*mU*mUmUrUmU
B8: GA406 (nucleic acid)
guide: TCAGCTCCAGGCGGTCCTGGGTTTTAGAGCTAGAAATAGCAAGTTAAAATAAGGCTAGTCCGTTATCAACTTGAAAAAGTGGCACCGAGTCGGTGCTTTTTTT
modifications: listed as RNA; modified_base 1: mod_base = OTHER; note = 2'-O-Methyl-uridine phosphorothioate; modified_base 2: mod_base = OTHER; note = 2'-O-Methyl-cytidine phosphorothioate; modified_base 3: mod_base = OTHER; note = 2'-O-Methyl-adenosine phosphorothioate;
B9: GA408 (nucleic acid)
guide: mU*mC*mA*rGrCrUrCrCrArGrGrCrGrGrUrCrCrUrGrGmGrUrUrUrUrArGmAmGmCmUmAmGmAmAmAmUmAmGmCmAmArGrUrUmArAmArAmUrAmAmGmGmCmUmArGrUmCmCrGrUrUrAmUmCrArAmCmUmUmGmAmAmAmAmAmGmUmGrGmCmAmCmCmGmAmGmUmCmGmGmUmGmCmU*mU*mU*mUmUrUmU

System: PCSK9 gene
Test: PCSK9 gRNA/SpCas9 editing in primary human hepatocytes (Tables 2, 4)
Assay type: cell-based
Details: 100 ng/RNA/mL; SpCas9 mRNA MS002 1:1 by weight
Protocol: (§1) In set of experiments, PCSK9 gRNAs were co-transfected with an equivalent amount (1:1 ratio by weight) of in vitro transcribed commercially available SpCas9 mRNA MS002 purchased from TriLink Biotechnologies into primary human hepatocytes at 2500, 500, or 100 ng/RNA/mL and processed as described in detailed methods. Extracted genomic DNA was analyzed for gene editing at the target site with next-generation sequencing of PCR amplicons generated around the target sites. Samples were prepared using the Nextera XT DNA library preparation kit (Illumina) according to the manufacturer's protocol. Briefly, two rounds of PCR were performed first to amplify the region of interest and second to add DNA sequences required for next generation sequencing and sample identification to the initial product. The final amplicon was sequenced on the Illumina MiSeq instrument according to the manufacturer's protocol. A wide range of editing activities (Table 2) were observed. In a second set of experiments, ANGPTL3 gRNAs were co-transfected with an equivalent amount of in vitro transcribed SpCas9 mRNA (1:1 ratio by weight) into primary human hepatocytes and processed and analyzed similarly (Table 3).
PCSK9 gRNAs were co-transfected with an equivalent amount of in vitro transcribed SpCas9 mRNA MS002 (1:1 ratio by weight) into primary human hepatocytes and processed as described in detailed methods. A wide range of editing activities were observed (Table 4; ND=Not determined). The guides with the highest editing activity at five days post transfection were GA001, GA002, GA007, and GA008.
Human primary hepatocytes were transfected at 2500, 1250, 500, and 250 ng/test article/mL with SpCas9 mRNA MS002 and a gRNA targeting PCSK9 with modifications to the tracr. Genomic DNA was processed, sequenced, and analyzed as described in the detailed methods section. GA156 was transfected to serve as a positive control.
Plating, culturing, and transfection of primary hepatocytes. Primary human liver hepatocytes (PHH) and primary cynomolgus liver hepatocytes (PCH) from BioIVT were cultured per the manufacturer's protocol. Briefly, primary human hepatocytes and primary cyno hepatocytes were obtained as frozen aliquots from BioIVT. Four lots of primary human hepatocytes, each derived from a de-identified individual donor, were used for the experiments: STL (main donor) was used for all experiments, including screening experiments and off-target experiments; HLY, JLP, and TLY were used for off-target experiments. The HFG lot of primary cyno hepatocytes were used for experiments. Following the manufacturer's instructions, cells were thawed and rinsed prior to plating in 24-well plates that had been coated with bovine collagen overnight, with a density of approximate 350,000 cells/well in INVITROGRO hepatocyte medium supplemented with TORPEDO antibiotic mix (BioIVT). The cells were thawed and resuspended in hepatocyte thawing medium followed by centrifugation at 100 g for 10 min at 4° C. The supernatant was discarded, and the pelleted cells resuspended in hepatocyte plating medium. Each vial contains approximately 5 million cells that were used for plating one 24-well plate. Plated cells were allowed to settle and adhere for 4-6 h in a tissue culture incubator at 37° C. under 5% CO2 atmosphere. After incubation, cells were checked for monolayer formation. The incubating media were then replaced with fresh hepatocyte maintenance media (complete INVITROGRO medium obtained from BioIVT, the cell line provider). The cells thus became ready for transfection. Each of the gRNAs were co-transfected with an equivalent amount of in vitro transcribed ABE8.8 mRNA (1:1 ratio by molecular weight) into primary human hepatocytes via MessengerMax reagent (Lipofectamine), using various dilutions to assess for editing activity at different concentrations of test article. MessengerMAX from Thermo Fisher is used for transfection. […]

B1 was tested, and the “Human Primary Hepatocyte Editing % 100” value was 0.4%.

Same assay, conditions: 500 ng/RNA/mL; SpCas9 mRNA MS002 1:1 by weight

For B1, the “Human Primary Hepatocyte Editing % 500” value was 2.99%.

Same assay, conditions: 2500 ng/RNA/mL; SpCas9 mRNA MS002 1:1 by weight

With B1 the “Human Primary Hepatocyte Editing % 2500” value was 7.61%.

Same assay, conditions: SpCas9 mRNA MS002

For B2, the “editing compared with minimally modified control gRNA GA009” value was “improved editing”.
With B3 the “editing compared with minimally modified control gRNA GA009” value was “improved editing”.

Same assay, conditions: modified gRNA, SpCas9 mRNA MS002 1:1 by weight; day 3 post transfection

Compared with B2, B3 is lower in “% Editing, day 3” value: 30% for the first, 20% for the second.

Same assay, conditions: modified gRNA, SpCas9 mRNA MS002 1:1 by weight; day 5 post transfection

Going from B2 to B3, the “% Editing, day 5” value rises from 27% to 28%.

System: PCSK9 gene
Test: PCSK9 gRNA/SpCas9 editing in primary cynomolgus hepatocytes (Tables 2, 22)
Assay type: cell-based, cynomolgus monkey
Details: SpCas9 mRNA MS002, 625 ng/test article/mL, rep1
Protocol: as §1
[…] Genomic DNA was processed, sequenced, and analyzed as described in the detailed methods section. GA266 was transfected independently twice to serve as two positive controls.
Plating, culturing, and transfection of primary hepatocytes. Primary human liver hepatocytes (PHH) and primary cynomolgus liver hepatocytes (PCH) from BioIVT were cultured per the manufacturer's protocol. Briefly, primary human hepatocytes and primary cyno hepatocytes were obtained as frozen aliquots from BioIVT. Four lots of primary human hepatocytes, each derived from a de-identified individual donor, were used for the experiments: STL (main donor) was used for all experiments, including screening experiments and off-target experiments; HLY, JLP, and TLY were used for off-target experiments. The HFG lot of primary cyno hepatocytes were used for experiments. Following the manufacturer's instructions, cells were thawed and rinsed prior to plating in 24-well plates that had been coated with bovine collagen overnight, with a density of approximate 350,000 cells/well in INVITROGRO hepatocyte medium supplemented with TORPEDO antibiotic mix (BioIVT). The cells were thawed and resuspended in hepatocyte thawing medium followed by centrifugation at 100 g for 10 min at 4° C. The supernatant was discarded, and the pelleted cells resuspended in hepatocyte plating medium. Each vial contains approximately 5 million cells that were used for plating one 24-well plate. Plated cells were allowed to settle and adhere for 4-6 h in a tissue culture incubator at 37° C. under 5% CO2 atmosphere. After incubation, cells were checked for monolayer formation. The incubating media were then replaced with fresh hepatocyte maintenance media (complete INVITROGRO medium obtained from BioIVT, the cell line provider). The cells thus became ready for transfection. Each of the gRNAs were co-transfected with an equivalent amount of in vitro transcribed ABE8.8 mRNA (1:1 ratio by molecular weight) into primary human hepatocytes via MessengerMax reagent (Lipofectamine), using various dilutions to assess for editing activity at different concentrations of test article. MessengerMAX from Thermo Fisher is used for transfection. Solution A: desired amount of guide RNA is mixed with 1:1 wt ratio of mRNA in OptiMEM. Solution B: MessengerMAX in OptiMEM. After mixing solutions A and B, the mixture was incubated at room temperature for 20 min. 60 μL of the incubated solution was added dropwise to each cell wells. For protospacer sequences that were a perfect match to the corresponding cynomolgous monkey PCSK9 or ANGPTL3 gene sequence, each gRNA was also co-transfected with an equivalent amount of ABE8.8 mRNA (1:1 ratio by molecular weight) into primary cynomolgous hepatocytes, and followed the same transfection protocol. […]

Going from B4 to B5, the “Cynomolgus Primary Hepatocytes-% Editing” value falls from 38.33% to 35.05%.

Going from B6 to B7, the “Cynomolgus Primary Hepatocytes-% Editing” value falls from 38.28% to 31.63%.

First: B8
Second: B9
The “Cynomolgus Primary Hepatocytes-% Editing” value of the first is higher: 37.58% for the first, 36.7% for the second.

Same assay, conditions: SpCas9 mRNA MS002, 625 ng/test article/mL, rep2

First: B4
Second: B5
The “Cynomolgus Primary Hepatocytes-% Editing” value of the first is lower: 38.77% for the first, 40.31% for the second.

Going from B6 to B7, the “Cynomolgus Primary Hepatocytes-% Editing” value falls from 35.58% to 30.16%.

First: B8
Second: B9
The “Cynomolgus Primary Hepatocytes-% Editing” value of the first is higher: 40.31% for the first, 37.14% for the second.

Same assay, conditions: SpCas9 mRNA MS002, 1250 ng/test article/mL, rep1

Going from B4 to B5, the “Cynomolgus Primary Hepatocytes-% Editing” value falls from 49.12% to 44.46%.

First: B6
Second: B7
The “Cynomolgus Primary Hepatocytes-% Editing” value of the first is higher: 50.5% for the first, 41.68% for the second.

Going from B8 to B9, the “Cynomolgus Primary Hepatocytes-% Editing” value rises from 45.11% to 47.21%.

Same assay, conditions: SpCas9 mRNA MS002, 1250 ng/test article/mL, rep2

Compared with B4, B5 is lower in “Cynomolgus Primary Hepatocytes-% Editing” value: 48.83% for the first, 47.93% for the second.

Compared with B6, B7 is lower in “Cynomolgus Primary Hepatocytes-% Editing” value: 47.13% for the first, 35.04% for the second.

Going from B8 to B9, the “Cynomolgus Primary Hepatocytes-% Editing” value rises from 43.68% to 49.8%.

Same assay, conditions: SpCas9 mRNA MS002, 2500 ng/test article/mL, rep1

First: B4
Second: B5
The “Cynomolgus Primary Hepatocytes-% Editing” value of the first is higher: 53.74% for the first, 45.58% for the second.

Compared with B6, B7 is lower in “Cynomolgus Primary Hepatocytes-% Editing” value: 52.62% for the first, 48.3% for the second.

Going from B8 to B9, the “Cynomolgus Primary Hepatocytes-% Editing” value falls from 57.17% to 50.4%.

Same assay, conditions: SpCas9 mRNA MS002, 2500 ng/test article/mL, rep2

Going from B4 to B5, the “Cynomolgus Primary Hepatocytes-% Editing” value rises from 52.79% to 55.34%.

Going from B6 to B7, the “Cynomolgus Primary Hepatocytes-% Editing” value falls from 55.84% to 50.59%.

First: B8
Second: B9
The “Cynomolgus Primary Hepatocytes-% Editing” value of the first is higher: 51.45% for the first, 46.92% for the second.

From patent US20250152746A1, “BASE EDITING OF ANGPTL3 AND METHODS OF USING SAME FOR TREATMENT OF DISEASE” (Verve Therapeutics, Inc., priority 2020, published 2025)
